± gives the uncertainty stated by the source.
B1: library; numbered along this chain (parent)
chain: MEVVDPQQLGMFTEGELMSVGMDTFIHRIDSTEVIYQPRRKRAKLIGKYLMGDLLGEGSYGKVKEVLDSETLCRRAVKILKKKKLRRIPNGEANVKKEIQLLRRLRHKNVIQLVDVLYNEEKQKMYMVMEYCVCGMQEMLDSVPEKRFPVCQAHGYFCQLIDGLEYLHSQGIVHKDIKPGNLLLTTGGTLKISDLGVAEALHPFAADDTCRTSQGSPAFQPPEIANGLDTFSGFKVDIWSAGVTLYNITTGLYPFEGDNIYKLFENIGKGSYAIPGDCGPPLSDLLKGMLEYEPAKRFSIRQIRQHSWFRKKHPPAEAPVPIPPSPDTKDRWRSMTVVPYLEDLHGADEDEDLFDIEDDIIYTQDFTVPGQVPEEEASHNGQRRGLPKAVCMNGTEAAQLSTKSRAEGRAPNPARKACSASSKIRRLSACKQQ

Variants of: B1
Assay: STK11 functional score (HeLa growth suppression), rescaled enrichment; synonymous median = 1, nonsense median = 0 (normalised score)
Settings: with HeLa; variant type: missense
How it was run: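 The values are functional scores: wild-type-corrected log ratios of post- versus pre-selection abundance, rescaled to synonymous and nonsense medians, merged over codons and replicate transfections, and carrying bootstrapped error. They derive from codon-randomised (POPCode), codon-optimised STK11 libraries that Bxb1 integrated at an AAVS1 landing pad in HeLa, with three transfections for each of three regions. Sequencing of tiled gDNA amplicons ran on NextSeq, at ~2 million reads per tile.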

Row | Variant | STK11 functional score
1 | MEVVDPQQLGMFTEGELMSVGMDTFIHRIDSTEVIYQPRRKRAKLIGKYLMGDLLGEGSYGKVKEVLDSETLCRRAVKILKKKKLRRIPNGEANVKKEIQLLRRLRHKNVIQLVDVLYNEEKQKMYPVMEYCVCGMQEMLDSVPEKRFPVCQAHGYFCQLIDGLEYLHSQGIVHKDIKPGNLLLTTGGTLKISDLGVAEALHPFAADDTCRTSQGSPAFQPPEIANGLDTFSGFKVDIWSAGVTLYNITTGLYPFEGDNIYKLFENIGKGSYAIPGDCGPPLSDLLKGMLEYEPAKRFSIRQIRQHSWFRKKHPPAEAPVPIPPSPDTKDRWRSMTVVPYLEDLHGADEDEDLFDIEDDIIYTQDFTVPGQVPEEEASHNGQRRGLPKAVCMNGTEAAQLSTKSRAEGRAPNPARKACSASSKIRRLSACKQQ [M127P] | 0.82 ± 0.4
2 | MEVVDPQQLGMFTEGELMSVGMDTFIHRIDSTEVIYQPRRKRAKLIGKYLMGDLLGEGSYGKVKEVLDSETLCRRAVKILKKKKLRRIPNGEANVKKEIQLLRRLRHKNVIQLVDVLYNEEKQKMYMVMEYCVCGMQEMLDSVPEKRFPVCQAHGYFCQLIDGLEYLHSQGIVHKDIKPGNLLLTTGGTLKISDLGVAEALHPFAADDTCRTSQGSPAFQPPEIANGLDTFSGFKVDIWSAGVTLYNITTGLYPFEGDNIYKLFENIGKSSYAIPGDCGPPLSDLLKGMLEYEPAKRFSIRQIRQHSWFRKKHPPAEAPVPIPPSPDTKDRWRSMTVVPYLEDLHGADEDEDLFDIEDDIIYTQDFTVPGQVPEEEASHNGQRRGLPKAVCMNGTEAAQLSTKSRAEGRAPNPARKACSASSKIRRLSACKQQ [G270S] | 1.47 ± 0.17
3 | MEVVDPQQLGMFTEGELMSVGMDTFIHRIDSTEVIYQPRRKRAKLIGKYLMGDLLGEGSYGKVKEVLDSETLCRRAVKILKKKKLRRIPNGEANVKKEIQLLRRLRHKNVIQLVDVLYNEEKQKMYMVMEYCVCGMQEMLDSVPEKRFPVCQAHGYFCQLIDGLEYLHSQGIVHKDIKPGNLLLTTGGTLKISDLGVAEALHPFAADDTCRTSQGSPAFQPPEIANGLDTFSGFKVDIWSAGVTLYNITTGLYPFEGDNIYKLFENIGKGSYAIPGDCGPPLSDLLKGMLEYEPAKRFSIRQIRQHSWFRKKHPPAEAPVPIPPSPDTKDRWRSMTVVPYLEDLHGADEDEDLFDIEDDIIYTQDFTVPGQLPEEEASHNGQRRGLPKAVCMNGTEAAQLSTKSRAEGRAPNPARKACSASSKIRRLSACKQQ [V372L] | 1.4 ± 0.3
4 | MEVVDPQQLGMFTEGELMSVGMDTFIHRIDSTEVIYQPRRKRAKLIGKYLMGDLLGEGSYGKVKEVLDSETLCRRAVKILKKKKLRRIPNGEANVKKEIQLLRRLRHKNVIQLVDVLYNEEKQKMYMVMEYCVCGMQEMLDSVPEKRFPVCQAHGYFCQLIDSLEYLHSQGIVHKDIKPGNLLLTTGGTLKISDLGVAEALHPFAADDTCRTSQGSPAFQPPEIANGLDTFSGFKVDIWSAGVTLYNITTGLYPFEGDNIYKLFENIGKGSYAIPGDCGPPLSDLLKGMLEYEPAKRFSIRQIRQHSWFRKKHPPAEAPVPIPPSPDTKDRWRSMTVVPYLEDLHGADEDEDLFDIEDDIIYTQDFTVPGQVPEEEASHNGQRRGLPKAVCMNGTEAAQLSTKSRAEGRAPNPARKACSASSKIRRLSACKQQ [G163S] | 0.402 ± 0.13
5 | MEVVDPQQLGMFTEGELMSVGMDTFIHRIDSTEVIYQPRRKRAKLIGKYLMGDLLGEGSYGKVKEVLDSETLCRRAVKILKKKKLRRIPNGEANVLKEIQLLRRLRHKNVIQLVDVLYNEEKQKMYMVMEYCVCGMQEMLDSVPEKRFPVCQAHGYFCQLIDGLEYLHSQGIVHKDIKPGNLLLTTGGTLKISDLGVAEALHPFAADDTCRTSQGSPAFQPPEIANGLDTFSGFKVDIWSAGVTLYNITTGLYPFEGDNIYKLFENIGKGSYAIPGDCGPPLSDLLKGMLEYEPAKRFSIRQIRQHSWFRKKHPPAEAPVPIPPSPDTKDRWRSMTVVPYLEDLHGADEDEDLFDIEDDIIYTQDFTVPGQVPEEEASHNGQRRGLPKAVCMNGTEAAQLSTKSRAEGRAPNPARKACSASSKIRRLSACKQQ [K96L] | 0.614 ± 0.26
6 | MEVVDPQQLGMFTEGELMSVGMDTFIHRITSTEVIYQPRRKRAKLIGKYLMGDLLGEGSYGKVKEVLDSETLCRRAVKILKKKKLRRIPNGEANVKKEIQLLRRLRHKNVIQLVDVLYNEEKQKMYMVMEYCVCGMQEMLDSVPEKRFPVCQAHGYFCQLIDGLEYLHSQGIVHKDIKPGNLLLTTGGTLKISDLGVAEALHPFAADDTCRTSQGSPAFQPPEIANGLDTFSGFKVDIWSAGVTLYNITTGLYPFEGDNIYKLFENIGKGSYAIPGDCGPPLSDLLKGMLEYEPAKRFSIRQIRQHSWFRKKHPPAEAPVPIPPSPDTKDRWRSMTVVPYLEDLHGADEDEDLFDIEDDIIYTQDFTVPGQVPEEEASHNGQRRGLPKAVCMNGTEAAQLSTKSRAEGRAPNPARKACSASSKIRRLSACKQQ [D30T] | 1.62 ± 0.21
7 | MEVVDPQQLGMFTEGELMSVGMDTFIHRIDSTEVIYQPRRKRAKLIGKYLMGDLLGEGSYGKVKEVLDSETLCRRAVKILKKKKLRRIPNGEANVKKEIQLLRRLRHKNVIQLVDVLYNEEKQKMYMVMEYCVWGMQEMLDSVPEKRFPVCQAHGYFCQLIDGLEYLHSQGIVHKDIKPGNLLLTTGGTLKISDLGVAEALHPFAADDTCRTSQGSPAFQPPEIANGLDTFSGFKVDIWSAGVTLYNITTGLYPFEGDNIYKLFENIGKGSYAIPGDCGPPLSDLLKGMLEYEPAKRFSIRQIRQHSWFRKKHPPAEAPVPIPPSPDTKDRWRSMTVVPYLEDLHGADEDEDLFDIEDDIIYTQDFTVPGQVPEEEASHNGQRRGLPKAVCMNGTEAAQLSTKSRAEGRAPNPARKACSASSKIRRLSACKQQ [C134W] | 0.131 ± 0.097
